Assay results from the DeepSol protein solubility set.

test: soluble on expression in E. coli; label from the status in PepcDB or PDB records

Sequence | soluble on expression in E. coli
ADVHDKATRSKNMRAIATRDTAIEKRLASLLTGQGLAFRVQDASLPGRPDFVVDEYRCVIFTHGCFWHHHHCYLFKVPATRTEFWLEKIGKNVERDRRDISRLQELGWRVLIVWECALRGREKLTDEALTERLEEWICGEGASAQIDTQGIHLLA | soluble
FQVPMSNLLTVHQNLPALPVDATSDEVRKNLMDMFRDRQAFSEHTWKMLLSVCRSWAAWCKLNNRKWFPAEPEDVRDYLLYLQARGLAVKTIQQHLGQLNMLHRRSGLPRPSDSNAVSLVMRRIRKENVDAGERAKQALAFERTDFDQVRSLMENSDRCQDIRNLAFLGIAYNTLLRIAEIARIRVKDISRTDGGRMLIHIGRTKTLVSTAGVEKALSLGVTKLVERWISVSGVADDPNNYLFCRVRKNGVAAPSATSQLSTRALEGIFEATHRLIYGAKDDSGQRYLAWSGHSARVGAARDMARAGVSIPEIMQAGGWTNVNIVMNYIRNLDSETGAMVRLLEDGD | soluble
MGHHHHHHSHMASLFRSYLPAIWLLLSQLLRESLAAELRGCGPRFGKHLLSYCPMPEKTFTTTPGGWLLESGRPKEMVSTSNNKDGQALGTTSEFIPNLSPELKKPLSEGQPSLKKIILSRKKRSGRHRFDPFCCEVICDDGTSVKLCT | not soluble
MGSDKIHHHHHHMDYLDKLTHLAQVRGEINIRCEFQGEWQISHQEKDAGKGIFHLIEQGECWLTLNEKQFHLKEGDVFFLPQNQPHSMHYSANKRADIPTKKSHQGLFELHQIGRGTPDLKMFCGNFYYQQDALLTASMPEYLHINLCDTPIHPLVQLFLQEAQKNDAGTKSVVDALSNVLLIYILRHAIQQNLIEQGILFALQDKRLNTALIAILQQPQNDWHIEQLAELATMSRANFIRIFQQHIGMSPGRFLTKVRLQSAAFLLKQSQQSVLAIALEVGYQSEAHFCKVFKNYYQLSPSQYRKSVSL | not soluble
MRRLLWLLTLGALAVALTACPRKAEEEAATETAPAEETSLPGANVRVGLAFDAGGKFDRSFNQSAWEGAQRAAQELGVQIFDFEPADPSQVGQGIRTFAEEGFDLVIGVGFANEPAITATAKEFPNVKFAVIDAVPGEGQLPNALGVVFREHEGSFLVGYVAGKLSRTGVVGFIGGMDIPLIHKFEAGFRAGAEYAFQEDGIQGRVLVGYVGNTPAAWNDPAKAKEIASSQARQGADIIYAAAGGSGLGLIDFVKEEMCLREGGAVRFVREDRFADVPKYPAYEEKCGEGTTPLFFIGVDANQNYLGDTDNDPTTLNHGLTSMVKRVDVAVYDTIKSVVDGTFQGGVKDLGLAEEGVGYALDEYNQALIPEEVKARLEELKQAIINGEIQVPETR | soluble
MAHHHHHHMKEHSHIIGLGDFFADAKKCWVLLASKSPRRIELMKLMGVSNLYICESGFEENLDKKQFASAEHYVKENALQKGLNVASHVWFGDQANTHSEGNVKEEETKKSTQQGSDSGHLSIGQPENEQHCTDATKKHQVKSLHSTYDPIPKVIISCDTIVTLKDEIIEKPLNKEHAREILKKLSSNIHCVYTAVCIFLHKTKVPITFIEKTDVHFDDLLEQDILEYLNSSEPYDKAGAYSIQGVGCQFIKKINGCYYNVMGLPINKLSKTLTQLCVEGKISA | soluble
MEEKLLVNLKENSYNIFIKKNILKNIGEEIKKIYFGNKIFIVTDENIAKLYLDKVKNNLSESGFEIKSLILKSGEETKSFNTLPKIYDSLLDFKLTRKDLIITLGGGVIGDLGGFAAATFLRGISFIQIPTSLLAQVDSSVGGKVGVDLERGKNLVGSFYQPKAVFIDPNVLLSLPEKFYRDGMAEVIKYGCIKDKTFFNKLLSLKNREEVMQHIEYIIHKCCFIKKTVVEADEKDFGDRMLLNFGHTLGHAIEKYYNFTGYTHGEAVAIGMYKITLESEKIGITKKGTSELIKSILMNYNLPYEIELRDNKSIVDAISLDKKNLGDTLKIILLKDIGESIIYNTTSKFFQEVR | not soluble
MAHLKKRNRLKKNEDFQKVFKHGTSVANRQFVLYTLDQPENDELRVGLSVSKKIGNAVMRNRIKRLIRQAFLEEKERLKEKDYIIIARKPASQLTYEETKKSLQHLFRKSSLYKKSSSK | soluble
MSLVENLSLEPQPKRRKIDPEVKESPSRNCSHWFVRNKVCASCNTIVDNYQGRSFDYLYTGIQMSNEALGFTKRLISQTSWLEDKKLHLVLDLDHTLVHTIKVSQLSESEKYITEEVESRKDLRRFNTGFPEESLIKLRSFVHQFLKECNEMFSLYVYTKGGYDYAQLVLEMIDPDKIYFGNRVITRRESPGFKTLDLVLADERGIVVVDDKSSVWPHDKKNLLQIARYKYFGDQSCLLSECKKKIDESDEKGPLNTALRFLMDVHEEFFCDWSRKDLDSVDVRPLLKEISLRWKRKADGVV | soluble
MGSDKIHHHHHHMRDQADRLREMALNLKQEIEAEIRRDLRYSRVVVISSGKGGVGKSTLALNLSLNLCARGMKIILMDADMGLANLDVMLGLVTKFNIYHIVQQKKSMEEITISGPEGLKIIPGGSGISELANLENTELKRILVELRKLDGAYDYMIIDTGAGISKSVMNFLLAAEDIIVITTPEPTAITDAYSLVKNVAKNSFAGSIYLVVNKVANDSEGILVAEKFKLVCQKFLSCEIKPLGHIVNEPLIGEGIRRQKAFVQIYPRSTATRNINTIVDRLIEASGQKSPGLESKRGGIRYFIEKIAGLVK | not soluble
MAHHHHHHMQMEEKQAFFVESVDGRKFKMVIRGDLGKLSVAKIRRYLKSYGVPENQLLLAGNRVLEDAMLGEQFGLENEGVLHLREPTTVQHLAPAAVPSTAQSRTQLQQKPELSYEPQSAWRETRYEPAAHDARQMQREIERLQRQVEAAEARNADLEHQLEQVAESSAPYPPRGGA | not soluble
MRIFAVFIFMTYWHLLNAFTVTVPKDLYVVEYGSNMTIECKFPVEKQLDLAALIVYWEMEDKNIIQFVHGEEDLKVQHSSYRQRARLLKDQLSLGNAALQITDVKLQDAGVYRCMISYGGADYKRITVKVNAPYNKINQRILVVDPVTSEHELTCQAEGYPKAEVIWTSSDHQVLSGKTTTTNSKREEKLFNVTSTLRINTTTNEIFYCTFRRLDPEENHTAELVIPELPLIEGRSRGSGLNDIFEAQKIEWHHHHHHHH | soluble
MSLEYQWGFANISMNYLDWTRSTTHKSGDSSHKDDFAYIELEGGAGYSWGEMYGFFDLENPFNSKTAQPGDNQRYTFKTTGRYYLGDSGFNLYGHIYGTYSLPSAEGNDYSNFHEVNTLYGIGYNATVAGVWMKPFVALHYVDQTYYSGNNGYVVGWVAGYDFTAFDENFSITNWNELEFNRAERYAAGNGGRNGVNGALALWWTPIKQFTTGIQYRYAYNKLGEDFLQDGIVYSIKYNFEGHHHHHH | not soluble
MAHHHHHHMSTNSAKILSRVREAMKLHSINALIVPSSDPHNSEYVMDSYKCRGFLTNFNGSAGTCLITMEEAYLWTDGRYWLEAGHCLYPEWQLMRDGHPGVPSLEDFVRLNLQPDLLVGMNDNLATVAEWERRRKAINLVPIPEIVRPLMPQNSDAKAEMLSIRPEQFCGQTREEKVMALVEELKGQKCEAMILSALDEVAWLTNLRGSDVPYNPVFYSYALVRSAPDPTVALFVDSAKVSSPVEAELTQSGRSVVSVSLHPYEALEDYVRALPAGTAFLVDEYQTSQRLYSLLESCKMKVNRVKCGPAQRLKAVKNAVEIEGFRRCHVRDGVALTRYLAWLHDMIVVKGDTTITECSGADVVEGFRREQEHFVQLSFPTISSVGPNGAVVHYTPPKEGSATIVPDQLYLVDSGAQYLDGTTDVTRTVCFNPPSDEERQAYTLVLKGHLALHNAVWPTGTTGHRLDALARVHLWRYGLDYAHGTGHGVGSFLNVHEGPQGIGYRPTPTEATLAAGMIMSNEPGYYKAGKYGIRIENLEVIVRAPTRHSQEGFLTFEALTMVPLCRDLIDVSMLTADEVRLVNDYHRTVRDALTPHLRRVNDSCALAYVERHTAELCALEGGC | soluble
MKRLIGLVIVALVLLAACGSNNDKKVTIGVASNDTKAWEKVKELAKKDDIDVEIKHFSDYNLPNKALNDGDIDMNAFQHFAFLDQYKKAHKGTKISALSTTVLAPLGIYSDKIKDVKKVKDGAKVVIPNDVSNQARALKLLEAAGLIKLKKDFGLAGTVKDITSNPKHLKITAVDAQQTARALSDVDIAVINNGVATKAGKDPKNDPIFLEKSNSDAVKPYINIVAVNDKDLDNKTYAKIVELYHSKEAQKALQEDVKDGEKPVNLSKDEIKAIETSLAK | soluble
MDKKSKLINLLKEVGCIRFGEFILASGKKSNYYIDIKKATTNPEILKLVGEIIAEQIKDEDVKVAGVELGSVPIATAVSIIAQKPLLIVRKKPKDYGTKNKIEGELKEGDKVVIVEDVTTTGGSVLKAVKEIRENGGIVDKVFVVVDRLEGAKENLQKENVELIPLVTVKELQSTQ | soluble
MMRKLKTLPPTLRDKNRYIAFEIISDGDFTKDEVKELIWKSSLEVLGETGTAIVKPWLIKFDPNTKTGIVRSDREYVEYLRFALMLVSEFNGKRLIIRTLGVSGTIKRLKRKFLAKYGWK | soluble
MIMICPGCSCLCDDIYIKDGKVFNACRRGEEIFAKYNENRAVARVDGKEVDVDTAIEKAIEILKDAKNPAIYGLDTTVVEAQSLAIEVAEKLNGYIDDNSSFCLGELVEAVLKGEIPTTTLDEVRDNAYVLVYWGTNPYHSLSRHMSKYTYYPRGKRRPRGYDEDRYLVVVDVRKSETAKLAKKNAKFIQVESDAELVDSFMKVVDGKAAKYAKEAGAIITEMKKADFNVIFGGLGLKYGLKDLNMFKEMVKKLNEVAKVYFIPAGFHGNMRGFNETLFEKVGYVNKYSFRDGKSGEEFAFTELLKNEKIDAALIVGTDPVYSLPFDVSSKLGKVKTIVIDPRMSFTARIADVVIPSAISGIEAGGTMVRSDGVRVMLEPLEEKEVNDVYILQRIKEGL | not soluble
MSLRVTLTDVARAAGVSKSTVSLVLNDSSLIKKETQQKVQQAIEQLGYVYNRFAANLRSQKSLTIGVVIDDLINPFFAEFTMGLEMTLAEHGFITVMSNTSQRSDRQKQVLDTLLEHHVAGIVLCPVNSTSEADLQRYANSSTPLLITMRPLDWQQLPVDYVGVDSHAGVREATEYLIQQGHRDIVFIGGLTHHMRYQGYLEAMNHHGLQPWSTDAFSLRAEPTQANGYQLMQQLLDMPSPPTAVICYNDLMAFGAESALGERGLFAGEDISLIGNDGVAACAYSNPPLTTIAVEPLALGKQAAQQILRRIAQPDAPLSHYIYRPTLQIRASTGKEGHHHHHH | soluble
MSDEISILIQDRKTGQRRNLTLNINITGNIEDLTKDVEKLTEIPSDELEVVFCGKKLSKSTIMRDLSLTPATQIMLLRPKFNSHNENGATTAKITTDSSILGSFYVWCKNCDDVKRGKLRVYCQKCSSTSVLVKSEPQNWSDVLKSKRIPAVCEECCTPGLFAEFKFKCLACNDPAAALTHVRGNWQMTECCVCDGKEKVIFDLGCNHITCQFCFRDYLLSQLERFGFVNQPPHGFTIFCPYPGCNRVVQDVHHFHIMGQTSYSEYQRKATERLIAVDDKGVTCPNVSCGQSFFWEPYDDDGRSQCPDCFFSFCRKCFERNCVCQSEDDLTRTTIDATTRRCPKCHVATERNGGCAHIHCTSCGMDWCFKCKTEWKEECQWDHWFN | not soluble
MGSDKIHHHHHHMARIPRFALVERDSSNHCTWRAHDFEHVLEEAGATDKFLELLGRYKEKYGVEINSYCLMGTHPHVTCTTRRDQEQFSRFWQVVNGQFARWYNKRRERRGQVVMERMRSPRIQAEGAHQLTVMRYGDLNPVRAGLVKSPKDWKWSSYRHYAFGEPDPLIDDAPEYLALGKTGPQRRKAYQALFALPLSESLRTRRIDLVEYPFVGDAHWVMHRLDVAGLSPPD | not soluble
